What was measured:
Cft1;Pfs2;Yth1;Fip1 = Cft1;Pfs2;Yth1;Fip1 (Saccharomyces cerevisiae;Saccharomyces …, UniProt Q06632;P42841;Q06102;P45976 1-1357;1-465;1-208;1-327, |||); test: EMSA; CPFpol (no Pap1); EMSA: 50 nM RNA, 0.25-4.0 uM protein, protein diluted in 10 mM HEPES pH 7.9, 150 mM NaCl, 0.5 mM Mg(OAc)2, plus 1x loading dye (orange G, glycerol, EDTA); 30 min on ice; native 6% acrylamide/TBE PAGE; conditions: protein: recombinant;recombinant;recombinant;recombinant; tags: ;3C-SII;3C-8H; untagged in CPFpol+Cft2;; copies: 1;2;1;1; label: 5'-FAM
Ysh1;Mpe1 = molecular target: T1, Ysh1;Mpe1 (Saccharomyces cerevisiae;Saccharomyces …, UniProt Q06224;P35728 1-779;1-441, |); test: EMSA; EMSA: 50 nM RNA, 0.25-4.0 uM protein, protein diluted in 10 mM HEPES pH 7.9, 150 mM NaCl, 0.5 mM Mg(OAc)2, plus 1x loading dye (orange G, glycerol, EDTA); 30 min on ice; native 6% acrylamide/TBE PAGE; conditions: protein: recombinant;recombinant; tags: ;3C-SII (C-terminal) in Ysh1-Mpe1 complexes; untagged in CPFcore; copies: 1;1; label: 5'-FAM
T1 sequence 1: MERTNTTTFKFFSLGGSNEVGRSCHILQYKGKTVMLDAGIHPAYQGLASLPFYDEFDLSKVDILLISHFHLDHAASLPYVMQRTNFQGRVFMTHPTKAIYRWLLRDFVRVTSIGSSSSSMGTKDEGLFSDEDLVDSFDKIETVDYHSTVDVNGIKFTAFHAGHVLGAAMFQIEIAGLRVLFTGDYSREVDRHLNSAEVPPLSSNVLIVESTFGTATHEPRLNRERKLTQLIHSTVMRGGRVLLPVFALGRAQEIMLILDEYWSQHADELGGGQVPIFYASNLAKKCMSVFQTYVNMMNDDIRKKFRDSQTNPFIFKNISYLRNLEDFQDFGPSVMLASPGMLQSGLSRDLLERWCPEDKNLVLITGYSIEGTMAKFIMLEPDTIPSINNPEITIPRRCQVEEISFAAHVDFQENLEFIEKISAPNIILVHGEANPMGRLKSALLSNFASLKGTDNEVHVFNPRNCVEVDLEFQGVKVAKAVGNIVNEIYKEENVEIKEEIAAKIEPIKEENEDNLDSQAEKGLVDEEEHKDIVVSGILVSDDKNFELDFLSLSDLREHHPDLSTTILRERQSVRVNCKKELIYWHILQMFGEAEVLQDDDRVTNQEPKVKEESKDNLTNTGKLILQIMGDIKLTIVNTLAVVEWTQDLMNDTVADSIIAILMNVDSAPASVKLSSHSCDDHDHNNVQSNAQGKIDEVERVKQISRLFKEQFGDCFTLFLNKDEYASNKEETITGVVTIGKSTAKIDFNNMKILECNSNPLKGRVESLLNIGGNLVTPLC
T1 sequence 2: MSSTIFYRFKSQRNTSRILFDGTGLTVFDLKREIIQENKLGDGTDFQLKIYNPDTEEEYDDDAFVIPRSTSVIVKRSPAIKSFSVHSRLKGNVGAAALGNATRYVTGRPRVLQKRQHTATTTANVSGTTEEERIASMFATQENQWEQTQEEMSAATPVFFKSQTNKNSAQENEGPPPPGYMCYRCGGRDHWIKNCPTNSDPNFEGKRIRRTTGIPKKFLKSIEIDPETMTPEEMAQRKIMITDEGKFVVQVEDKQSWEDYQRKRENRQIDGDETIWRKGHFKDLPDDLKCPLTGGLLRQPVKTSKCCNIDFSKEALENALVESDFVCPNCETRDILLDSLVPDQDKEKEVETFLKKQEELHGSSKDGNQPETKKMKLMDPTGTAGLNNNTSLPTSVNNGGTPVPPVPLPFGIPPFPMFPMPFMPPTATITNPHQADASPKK

Cft1;Pfs2;Yth1;Fip1, sequence (Q06632 whole entry, chain 1 of 4): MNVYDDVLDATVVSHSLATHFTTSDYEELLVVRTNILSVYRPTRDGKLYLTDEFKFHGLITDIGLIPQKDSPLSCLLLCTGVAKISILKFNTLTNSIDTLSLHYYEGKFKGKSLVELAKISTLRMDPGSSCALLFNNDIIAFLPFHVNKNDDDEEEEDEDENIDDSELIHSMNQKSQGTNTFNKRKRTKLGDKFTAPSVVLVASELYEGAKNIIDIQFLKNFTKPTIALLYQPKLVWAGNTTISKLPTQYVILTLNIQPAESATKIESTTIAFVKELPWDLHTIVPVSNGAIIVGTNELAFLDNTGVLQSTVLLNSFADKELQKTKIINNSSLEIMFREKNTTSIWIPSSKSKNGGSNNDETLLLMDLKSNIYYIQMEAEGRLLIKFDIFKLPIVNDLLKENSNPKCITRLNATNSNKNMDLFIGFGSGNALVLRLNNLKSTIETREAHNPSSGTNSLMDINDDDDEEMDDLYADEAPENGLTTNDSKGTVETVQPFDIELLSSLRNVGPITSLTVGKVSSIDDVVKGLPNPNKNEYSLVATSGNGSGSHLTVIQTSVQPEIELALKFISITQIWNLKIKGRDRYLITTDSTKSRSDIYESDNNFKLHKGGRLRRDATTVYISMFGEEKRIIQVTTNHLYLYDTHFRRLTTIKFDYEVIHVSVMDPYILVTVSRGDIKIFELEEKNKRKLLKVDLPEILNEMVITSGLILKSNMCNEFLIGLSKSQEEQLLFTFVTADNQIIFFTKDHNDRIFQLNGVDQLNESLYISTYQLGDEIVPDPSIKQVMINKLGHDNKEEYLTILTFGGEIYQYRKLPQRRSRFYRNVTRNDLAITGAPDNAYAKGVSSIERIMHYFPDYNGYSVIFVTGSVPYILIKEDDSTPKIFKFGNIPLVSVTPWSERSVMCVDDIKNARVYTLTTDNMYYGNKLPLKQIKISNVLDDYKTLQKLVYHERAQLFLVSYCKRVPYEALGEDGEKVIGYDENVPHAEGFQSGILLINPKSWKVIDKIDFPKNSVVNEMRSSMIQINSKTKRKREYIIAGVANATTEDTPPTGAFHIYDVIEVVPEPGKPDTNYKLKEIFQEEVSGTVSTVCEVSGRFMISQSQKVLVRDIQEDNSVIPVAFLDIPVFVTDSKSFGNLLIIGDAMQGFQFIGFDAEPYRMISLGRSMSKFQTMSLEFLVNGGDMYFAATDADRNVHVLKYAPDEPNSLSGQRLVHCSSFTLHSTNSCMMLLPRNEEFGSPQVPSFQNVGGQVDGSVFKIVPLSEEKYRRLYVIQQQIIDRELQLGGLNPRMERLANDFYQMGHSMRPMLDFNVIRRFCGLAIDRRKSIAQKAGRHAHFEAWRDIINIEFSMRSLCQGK
Cft1;Pfs2;Yth1;Fip1, sequence (P42841 whole entry, chain 2 of 4): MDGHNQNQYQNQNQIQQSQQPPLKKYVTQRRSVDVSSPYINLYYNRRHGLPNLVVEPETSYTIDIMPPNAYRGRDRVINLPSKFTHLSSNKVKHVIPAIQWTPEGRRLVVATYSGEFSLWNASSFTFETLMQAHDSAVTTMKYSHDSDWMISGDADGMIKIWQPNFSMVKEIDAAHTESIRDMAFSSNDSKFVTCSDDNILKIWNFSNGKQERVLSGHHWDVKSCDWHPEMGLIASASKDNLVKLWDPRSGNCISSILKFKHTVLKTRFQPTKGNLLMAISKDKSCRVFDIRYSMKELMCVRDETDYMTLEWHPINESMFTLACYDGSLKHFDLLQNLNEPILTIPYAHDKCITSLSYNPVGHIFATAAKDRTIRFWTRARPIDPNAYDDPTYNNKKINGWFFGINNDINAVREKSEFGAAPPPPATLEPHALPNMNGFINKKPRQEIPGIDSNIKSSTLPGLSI
Cft1;Pfs2;Yth1;Fip1, sequence (Q06102 whole entry, chain 3 of 4): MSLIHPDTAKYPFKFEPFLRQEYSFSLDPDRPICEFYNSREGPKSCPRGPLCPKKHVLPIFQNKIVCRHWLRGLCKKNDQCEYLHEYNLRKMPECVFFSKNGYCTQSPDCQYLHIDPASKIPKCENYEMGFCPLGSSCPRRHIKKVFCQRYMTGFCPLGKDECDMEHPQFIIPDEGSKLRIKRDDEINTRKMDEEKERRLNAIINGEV
Cft1;Pfs2;Yth1;Fip1, sequence (P45976 whole entry, chain 4 of 4): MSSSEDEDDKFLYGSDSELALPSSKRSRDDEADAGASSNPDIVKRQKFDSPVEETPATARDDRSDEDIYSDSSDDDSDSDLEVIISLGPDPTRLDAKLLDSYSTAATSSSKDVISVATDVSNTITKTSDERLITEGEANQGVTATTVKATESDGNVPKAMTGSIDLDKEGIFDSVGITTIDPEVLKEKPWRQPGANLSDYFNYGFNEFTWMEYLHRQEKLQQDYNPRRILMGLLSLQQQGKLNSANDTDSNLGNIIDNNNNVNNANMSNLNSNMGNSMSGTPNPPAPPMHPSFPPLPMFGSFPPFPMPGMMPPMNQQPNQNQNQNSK

**Q.** Does UUUUUUUUUUUUUUU (ssRNA) [U15] bind (Cft1;Pfs2;Yth1;Fip1)?
**A.** Result: no binding

**Q.** Does UUUUUUUUUUUUUUU (ssRNA) [U15] bind (Ysh1;Mpe1)?
**A.** Result: no binding

**Q.** What does the source list for CCCCCCCCCCCCCCC (ssRNA) [C15]?
**A.** binding result (Cft1;Pfs2;Yth1;Fip1): no binding; binding result (Ysh1;Mpe1): no binding

**Q.** Does AAGAACGUUAUUUAUAUUUCAAAUUUUUCUUUUUU (ssRNA) [CYC1d EMSA probe] bind (Cft1;Pfs2;Yth1;Fip1)?
**A.** Result: binds

**Q.** Which results are given for AAAAAAAAAAAAAAA (ssRNA) [A15]?
**A.** binding result (Cft1;Pfs2;Yth1;Fip1): binds; binding result (Ysh1;Mpe1): no binding

**Q.** Does GGGGGGGGGGGGGGG (ssRNA) [G15] bind (Cft1;Pfs2;Yth1;Fip1)?
**A.** Result: binds

**Q.** Does GGGGGGGGGGGGGGG (ssRNA) [G15] bind (Ysh1;Mpe1)?
**A.** Result: binds

Source: paper PMC6436931, “Activation of the Endonuclease that Defines mRNA 3′ Ends Requires Incorporation into an 8-Subunit Core Cleavage and Polyadenylation Factor Complex” (Molecular Cell, 2019)
